The source of these data is patent US5298404.

Series [1] concerns HpaI restriction endonuclease (native) (Haemophilus parainfluenzae). As to the kind of experiment: cleavage_in_vitro. As to conditions: 10 mM Tris pH 7.5, 10 mM MgCl2, 100 mM NaCl, 37 C.
Series [2] deals with HpaI restriction endonuclease (recombinant) (Haemophilus parainfluenzae). As to the kind of experiment: cleavage_in_vitro. As to conditions: assay as for native enzyme; Mg2+, 37 C.

Take phage lambda DNA: the activity in series [1] and in series [2] was 250000 units/mg each time.
